These results are taken from PMC3185932, “A truncated form of CD9-partner 1 (CD9P-1), GS-168AT2, potently inhibits in vivo tumour-induced angiogenesis and tumour growth” (British Journal of Cancer, 2011).

The data set concerns the molecule itself. Description: SDS-PAGE (Coomassie blue) and Western blot of the purified protein; purified GS-168AT2; 36 kDa band seen by Coomassie blue and recognised by 229T mAb. In general terms: In western blotting, separated proteins are transferred to a membrane and probed.

B1: GS-168AT2, truncated form of CD9 partner-1 (CD9P-1), amino acid 724-832 (domain or fragment, human, UniProt Q9P2B2 724-832, looked up)
chain: DMAFDVSWFAVHSFGLDKAPVLLSSLDRKGIVTTSRRDWKSDLSLERVSVLEFLLQVHGSEDQDFGNYYCSVTPWVKSPTGSWQKEAEIHSKPVFITVKMDVLNAFKYP
notes: CD9 partner-1 (CD9P-1/FPRP/EWI-F), human, amino acid 724-832: the unglycosylated extracellular portion next to the transmembrane domain; cDNA from RNA of human endothelial cells; no removal of the tag is described. pET-30 EK/LIC is known to add His and S tags at the N-terminus (surmised); also called truncated CD9P-1; source: E. coli BL21(DE3)pLys, purified from the insoluble fraction in urea …
Regarding B1, the binding result was “binds”.
